Source: patent publication US20250019439A1 (Adimab, published 2025)

How the values were obtained:
ADI-26912 = target: T1, ADI-26912; assay: SPR Carterra, yeast anti-ID
T1 construct: anti-CD3 antibody made in CHO cells, captured by anti-human Fc
Procedure, shortened: (§1)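 Kinetic constants come from a 1:1 binding-model fit of double-referenced, drift-corrected sensorgrams. Anti-CD3 antibodies (100 nM) were captured via immobilized anti-human Fc, and anti-idiotype binding was recorded at 25° C in HBSTE, with dissociation monitored for 300s.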

ADI-26915 = target: T2, ADI-26915; assay: SPR Carterra, yeast anti-ID
T2 construct: anti-CD3 antibody made in CHO cells, captured by anti-human Fc
Procedure, shortened: as §1

ADI-48576 = target: T3, ADI-48576; assay: SPR Carterra, yeast anti-ID
T3 construct: pH-dependent anti-CD3 antibody made in CHO cells
Procedure, shortened: as §1

ADI-48592 = target: T4, ADI-48592; assay: SPR Carterra, yeast anti-ID
T4 construct: pH-dependent anti-CD3 antibody made in CHO cells
Procedure, shortened: as §1

ADI-48650 = target: T5, ADI-48650; assay: SPR Carterra, yeast anti-ID
T5 construct: pH-dependent anti-CD3 antibody made in CHO cells
Procedure, shortened: as §1

ADI-74965 = target: T6, ADI-74965; assay: SPR Carterra, yeast anti-ID
T6 construct: pH-dependent anti-CD3 antibody made in CHO cells
Procedure, shortened: as §1

CTL-62227 = target: T7, CTL-62227; assay: SPR Carterra, yeast anti-ID
T7 construct: also called odronextamab
Procedure, shortened: as §1

CTL-62228 = target: T8, CTL-62228; assay: SPR Carterra, yeast anti-ID
T8 construct: also called glofitamab
Procedure, shortened: as §1

CTL-62240 = target: T9, CTL-62240; assay: SPR Carterra, yeast anti-ID
T9 construct: also called ONO-4685
Procedure, shortened: as §1

ADI-50024 = target: T10, ADI-50024; assay: SPR Carterra avidity, yeast anti-ID
T10 construct: anti-CD3 antibody made in CHO cells, captured by anti-human Fc
Procedure, shortened: as §1

ADI-70326 = target: T11, ADI-70326; assay: SPR Carterra avidity, yeast anti-ID
T11 construct: anti-CD3 antibody made in CHO cells, captured by anti-human Fc
Procedure, shortened: as §1

ADI-70327 = target: T12, ADI-70327; assay: SPR Carterra avidity, yeast anti-ID
T12 construct: anti-CD3 antibody made in CHO cells, captured by anti-human Fc
Procedure, shortened: as §1

ADI-70330 = target: T13, ADI-70330; assay: SPR Carterra avidity, yeast anti-ID
T13 construct: anti-CD3 antibody made in CHO cells, captured by anti-human Fc
Procedure, shortened: as §1

ADI-26906 IgG = target: T14, ADI-26906 IgG; assay: SPR Carterra avidity, yeast anti-ID
T14 construct: anti-CD3 IgG
Procedure, shortened: as §1

ADI-67450 = target: T15, ADI-67450; assay: SPR Carterra avidity, yeast anti-ID
T15 construct: anti-CD3 antibody made in CHO cells, captured by anti-human Fc
Procedure, shortened: as §1

ADI-26913 IgG = target: T16, ADI-26913 IgG; assay: SPR Carterra avidity, yeast anti-ID
T16 construct: anti-CD3 IgG
Procedure, shortened: as §1

ADI-26919 = target: T17, ADI-26919; assay: SPR Carterra avidity, yeast anti-ID
T17 construct: anti-CD3 antibody made in CHO cells, captured by anti-human Fc
Procedure, shortened: as §1

ADI-26916 IgG = target: T18, ADI-26916 IgG; assay: SPR Carterra avidity, yeast anti-ID
T18 construct: anti-CD3 IgG
Procedure, shortened: as §1

ADI-48587 = target: T19, ADI-48587; assay: SPR Carterra avidity, yeast anti-ID
T19 construct: pH-dependent anti-CD3 antibody made in CHO cells
Procedure, shortened: as §1

ADI-74966 = target: T20, ADI-74966; assay: SPR Carterra avidity, yeast anti-ID
T20 construct: pH-dependent anti-CD3 antibody made in CHO cells
Procedure, shortened: as §1

ADI-74967 = target: T21, ADI-74967; assay: SPR Carterra avidity, yeast anti-ID
T21 construct: pH-dependent anti-CD3 antibody made in CHO cells
Procedure, shortened: as §1

ADI-74968 = target: T22, ADI-74968; assay: SPR Carterra avidity, yeast anti-ID
T22 construct: pH-dependent anti-CD3 antibody made in CHO cells
Procedure, shortened: as §1

ADI-76357 = target: T23, ADI-76357; assay: SPR Carterra avidity, yeast anti-ID
T23 construct: anti-CD3 antibody made in CHO cells, captured by anti-human Fc
Procedure, shortened: as §1

ADI-76358 = target: T24, ADI-76358; assay: SPR Carterra avidity, yeast anti-ID
T24 construct: anti-CD3 antibody made in CHO cells, captured by anti-human Fc
Procedure, shortened: as §1

ADI-76360 = target: T25, ADI-76360; assay: SPR Carterra avidity, yeast anti-ID
T25 construct: anti-CD3 antibody made in CHO cells, captured by anti-human Fc
Procedure, shortened: as §1

CTL-62223 = target: T26, CTL-62223; assay: SPR Carterra avidity, yeast anti-ID
T26 construct: also called mosunetuzumab
Procedure, shortened: as §1

ADI-22523 Fab = target: T27, ADI-22523 Fab; assay: BLI; tip anti-ID IgG, solution ADI-22523 Fab
T27 construct: anti-CD3 Fab by papain digestion of the IgG
Procedure, shortened: (§2)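 Anti-ID IgG was captured on AHC biosensors, equilibrated in assay buffer for 30 min, then baselined for 60 s. KD = koff/kon came from a 1:1 binding fit.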

ADI-22523 IgG = target: T28, ADI-22523 IgG; assay: BLI; tip anti-ID IgG, solution ADI-22523 IgG
T28 construct: anti-CD3 IgG
Procedure, shortened: as §2

ADI-67445 = target: T29, ADI-67445; assay: SPR Carterra avidity, yeast anti-ID, *koff limit
T29 construct: anti-CD3 antibody made in CHO cells, captured by anti-human Fc
Procedure, shortened: as §1

ADI-67447 = target: T30, ADI-67447; assay: SPR Carterra avidity, yeast anti-ID, *koff limit
T30 construct: anti-CD3 antibody made in CHO cells, captured by anti-human Fc
Procedure, shortened: as §1

ADI-26909 = target: T31, ADI-26909; assay: SPR Carterra avidity, yeast anti-ID, *koff limit
T31 construct: anti-CD3 antibody made in CHO cells, captured by anti-human Fc
Procedure, shortened: as §1

ADI-26920 IgG = target: T32, ADI-26920 IgG; assay: SPR Carterra avidity, yeast anti-ID, *koff limit
T32 construct: anti-CD3 IgG
Procedure, shortened: as §1

ADI-26921 IgG = target: T33, ADI-26921 IgG; assay: SPR Carterra avidity, yeast anti-ID, *koff limit
T33 construct: anti-CD3 IgG
Procedure, shortened: as §1

ADI-26924 = target: T34, ADI-26924; assay: SPR Carterra avidity, yeast anti-ID, *koff limit
T34 construct: anti-CD3 antibody made in CHO cells, captured by anti-human Fc
Procedure, shortened: as §1

ADI-26943 = target: T35, ADI-26943; assay: SPR Carterra avidity, yeast anti-ID, *koff limit
T35 construct: anti-CD3 antibody made in CHO cells, captured by anti-human Fc
Procedure, shortened: as §1

ADI-76359 = target: T36, ADI-76359; assay: SPR Carterra avidity, yeast anti-ID, *koff limit
T36 construct: anti-CD3 antibody made in CHO cells, captured by anti-human Fc
Procedure, shortened: as §1

ADI-76361 = target: T37, ADI-76361; assay: SPR Carterra avidity, yeast anti-ID, *koff limit
T37 construct: anti-CD3 antibody made in CHO cells, captured by anti-human Fc
Procedure, shortened: as §1

ADI-76362 = target: T38, ADI-76362; assay: SPR Carterra avidity, yeast anti-ID, *koff limit
T38 construct: anti-CD3 antibody made in CHO cells, captured by anti-human Fc
Procedure, shortened: as §1

T1 sequence (VH, as listed by the source, chain 1 of 2): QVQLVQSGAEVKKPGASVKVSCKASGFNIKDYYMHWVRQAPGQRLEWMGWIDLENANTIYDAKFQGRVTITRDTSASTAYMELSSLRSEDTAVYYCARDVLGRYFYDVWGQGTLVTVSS
T1 sequence (VL, as listed by the source, chain 2 of 2): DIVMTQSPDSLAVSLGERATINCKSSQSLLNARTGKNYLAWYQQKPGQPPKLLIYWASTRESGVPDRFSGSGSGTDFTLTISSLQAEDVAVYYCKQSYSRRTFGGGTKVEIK
T7 sequence (VH, as listed by the source, chain 1 of 2): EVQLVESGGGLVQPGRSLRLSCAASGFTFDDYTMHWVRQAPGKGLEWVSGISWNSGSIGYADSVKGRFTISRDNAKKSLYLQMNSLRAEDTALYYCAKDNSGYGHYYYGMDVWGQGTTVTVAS
T7 sequence (VL, as listed by the source, chain 2 of 2): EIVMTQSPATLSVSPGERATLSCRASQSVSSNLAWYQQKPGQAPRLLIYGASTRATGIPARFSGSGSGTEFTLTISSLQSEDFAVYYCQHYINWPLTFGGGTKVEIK
T34 sequence (VH, as listed by the source, chain 1 of 2): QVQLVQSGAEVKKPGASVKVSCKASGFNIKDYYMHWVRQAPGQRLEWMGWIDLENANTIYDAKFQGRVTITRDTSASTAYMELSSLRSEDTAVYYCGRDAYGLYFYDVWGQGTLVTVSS
T34 sequence (VL, as listed by the source, chain 2 of 2): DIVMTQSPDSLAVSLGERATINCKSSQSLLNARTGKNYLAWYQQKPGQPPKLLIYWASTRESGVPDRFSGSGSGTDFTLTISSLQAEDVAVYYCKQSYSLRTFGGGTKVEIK
T15 sequence (VH, as listed by the source limits assumed, chain 1 of 2): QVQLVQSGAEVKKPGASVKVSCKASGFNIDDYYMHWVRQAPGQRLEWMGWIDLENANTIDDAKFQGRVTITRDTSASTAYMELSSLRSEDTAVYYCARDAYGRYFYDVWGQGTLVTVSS
T27 sequence (VH, as listed by the source limits assumed, chain 1 of 2): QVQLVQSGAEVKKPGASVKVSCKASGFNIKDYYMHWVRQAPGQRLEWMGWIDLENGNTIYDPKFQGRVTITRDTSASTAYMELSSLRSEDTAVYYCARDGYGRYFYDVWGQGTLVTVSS
T27 sequence (VL, as listed by the source limits assumed, chain 2 of 2): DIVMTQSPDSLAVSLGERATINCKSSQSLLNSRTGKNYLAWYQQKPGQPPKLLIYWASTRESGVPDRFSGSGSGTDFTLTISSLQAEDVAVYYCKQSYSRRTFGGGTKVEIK
T5 sequence (VH, as listed by the source, chain 1 of 2): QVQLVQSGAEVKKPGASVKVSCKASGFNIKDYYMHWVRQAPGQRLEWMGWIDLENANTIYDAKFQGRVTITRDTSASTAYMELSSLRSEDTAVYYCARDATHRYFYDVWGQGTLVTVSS
T5 sequence (VL, as listed by the source, chain 2 of 2): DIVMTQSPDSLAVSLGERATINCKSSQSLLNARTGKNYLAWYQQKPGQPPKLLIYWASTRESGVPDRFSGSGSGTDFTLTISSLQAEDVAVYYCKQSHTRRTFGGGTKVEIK
T18 sequence (VH, as listed by the source, chain 1 of 2): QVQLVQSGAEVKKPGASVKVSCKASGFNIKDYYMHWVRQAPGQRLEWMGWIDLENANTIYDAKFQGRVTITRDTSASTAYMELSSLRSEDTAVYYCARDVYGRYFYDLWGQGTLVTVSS
T16 sequence (VH, as listed by the source limits assumed, chain 1 of 2): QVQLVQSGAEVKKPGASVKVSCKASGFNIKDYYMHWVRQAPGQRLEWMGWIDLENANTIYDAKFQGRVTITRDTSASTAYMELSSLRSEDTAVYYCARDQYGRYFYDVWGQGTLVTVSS
T26 sequence (VH, as listed by the source, chain 1 of 2): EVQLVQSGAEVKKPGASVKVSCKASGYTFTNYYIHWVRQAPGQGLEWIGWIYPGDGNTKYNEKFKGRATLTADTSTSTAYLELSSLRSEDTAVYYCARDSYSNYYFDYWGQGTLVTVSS
T26 sequence (VL, as listed by the source, chain 2 of 2): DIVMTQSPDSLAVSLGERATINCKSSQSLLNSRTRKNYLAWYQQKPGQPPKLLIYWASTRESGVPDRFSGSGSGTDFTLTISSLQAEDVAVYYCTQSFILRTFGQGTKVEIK
T31 sequence (VH, as listed by the source limits assumed, chain 1 of 2): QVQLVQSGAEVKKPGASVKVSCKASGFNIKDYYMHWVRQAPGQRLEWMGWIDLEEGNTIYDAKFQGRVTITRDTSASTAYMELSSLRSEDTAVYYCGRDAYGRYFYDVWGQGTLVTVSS
T20 sequence (VH, as listed by the source, chain 1 of 2): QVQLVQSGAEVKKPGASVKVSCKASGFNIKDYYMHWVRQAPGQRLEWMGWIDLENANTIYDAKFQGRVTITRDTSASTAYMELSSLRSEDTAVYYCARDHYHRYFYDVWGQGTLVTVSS
T20 sequence (VL, as listed by the source, chain 2 of 2): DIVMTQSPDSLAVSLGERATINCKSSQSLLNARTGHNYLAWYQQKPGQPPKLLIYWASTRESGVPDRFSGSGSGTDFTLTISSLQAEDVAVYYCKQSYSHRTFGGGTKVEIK
T19 sequence (VL, as listed by the source, chain 2 of 2): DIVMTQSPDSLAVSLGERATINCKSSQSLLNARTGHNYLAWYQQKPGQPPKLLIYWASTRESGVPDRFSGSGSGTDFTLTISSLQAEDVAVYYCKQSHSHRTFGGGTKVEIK
T21 sequence (VL, as listed by the source, chain 2 of 2): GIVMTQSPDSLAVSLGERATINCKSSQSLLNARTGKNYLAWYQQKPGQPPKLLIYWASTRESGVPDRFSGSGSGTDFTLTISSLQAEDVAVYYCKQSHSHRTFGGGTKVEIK
T11 sequence (VH, as listed by the source limits assumed, chain 1 of 2): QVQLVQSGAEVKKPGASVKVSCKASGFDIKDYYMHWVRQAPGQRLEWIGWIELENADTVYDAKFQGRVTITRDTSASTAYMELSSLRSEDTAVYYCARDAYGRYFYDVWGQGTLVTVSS
T11 sequence (VL, as listed by the source limits assumed, chain 2 of 2): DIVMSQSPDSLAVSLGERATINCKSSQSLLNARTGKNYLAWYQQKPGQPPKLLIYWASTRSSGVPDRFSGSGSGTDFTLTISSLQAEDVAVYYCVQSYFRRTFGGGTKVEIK
T10 sequence (VH, as listed by the source limits assumed, chain 1 of 2): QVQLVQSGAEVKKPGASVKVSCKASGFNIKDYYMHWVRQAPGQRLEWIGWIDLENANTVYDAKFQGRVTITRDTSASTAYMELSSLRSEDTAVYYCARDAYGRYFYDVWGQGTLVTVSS
T25 sequence (VH, as listed by the source, chain 1 of 2): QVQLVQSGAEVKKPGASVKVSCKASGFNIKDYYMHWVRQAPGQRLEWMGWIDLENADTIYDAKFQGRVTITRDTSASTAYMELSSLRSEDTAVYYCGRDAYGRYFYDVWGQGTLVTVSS
T38 sequence (VH, as listed by the source, chain 1 of 2): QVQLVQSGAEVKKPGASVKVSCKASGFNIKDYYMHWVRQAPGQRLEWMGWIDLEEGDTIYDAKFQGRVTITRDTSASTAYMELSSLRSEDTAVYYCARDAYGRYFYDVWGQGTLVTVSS

B1: ADI-34131 (antibody, V domains shown)
VH: QVQLVQSGAEVKKPGSSVKVSCKASGGTFSSYAISWVRQAPGQGLEWMGGIIPIFGTANYAQKFQGRVTITADESTSTAYMELSSLRSEDTAVYYCARGAPNYYGSGGYDDGWFDPWGQGTLVTVSS
VL: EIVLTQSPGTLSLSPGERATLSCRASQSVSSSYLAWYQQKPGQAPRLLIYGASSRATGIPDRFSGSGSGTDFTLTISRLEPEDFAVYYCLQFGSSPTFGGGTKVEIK
notes: anti-ID IgG
ADI-26912
  binding result: no binding (tested: up to 200 nM)
ADI-26915
  binding result: no binding (tested: up to 200 nM)
ADI-48576
  binding result: no binding (tested: up to 200 nM)
ADI-48592
  binding result: no binding (tested: up to 200 nM)
ADI-48650
  binding result: no binding (tested: up to 200 nM)
ADI-74965
  binding result: no binding (tested: up to 200 nM)
CTL-62227
  binding result: no binding (tested: up to 200 nM)
CTL-62228
  binding result: no binding (tested: up to 200 nM)
CTL-62240
  binding result: no binding (tested: up to 200 nM)
ADI-50024
  Kd: 18 nM
ADI-70326
  Kd: 130 nM
ADI-70327
  Kd: 130 nM
ADI-70330
  Kd: 80 nM
ADI-26906 IgG
  Kd: 27 nM
ADI-67450
  Kd: 69 nM
ADI-26913 IgG
  Kd: 20 nM
ADI-26919
  Kd: 25 nM
ADI-26916 IgG
  Kd: 84 nM
ADI-48587
  binding result: binds
ADI-74966
  Kd: 31 nM
ADI-74967
  Kd: 22 nM
ADI-74968
  binding result: binds
ADI-76357
  Kd: 35 nM
ADI-76358
  Kd: 91 nM
ADI-76360
  Kd: 43 nM
CTL-62223
  Kd: 54 nM
ADI-22523 Fab
  Kd: 13.5 nM
ADI-22523 IgG
  Kd: 0.73 nM
ADI-67445
  Kd: 25 nM
ADI-67447
  Kd: 13 nM
ADI-26909
  Kd: 13 nM
ADI-26920 IgG
  Kd: 11 nM
ADI-26921 IgG
  Kd: 18 nM
ADI-26924
  Kd: 17 nM
ADI-26943
  Kd: 22 nM
ADI-76359
  Kd: 8.7 nM
ADI-76361
  Kd: 19 nM
ADI-76362
  Kd: 16 nM
